In patent US20220251193A1 (RAMOT AT TEL AVIV UNIVERSITY, published 2022):

T1: Sema3A(65) (human (by the filing's definition of …, UniProt Q14563 21-555, limits assumed))
T1 construct: also called recombinant pure Sema3a protein; 65 kDa furin cleavage
T1 sequence: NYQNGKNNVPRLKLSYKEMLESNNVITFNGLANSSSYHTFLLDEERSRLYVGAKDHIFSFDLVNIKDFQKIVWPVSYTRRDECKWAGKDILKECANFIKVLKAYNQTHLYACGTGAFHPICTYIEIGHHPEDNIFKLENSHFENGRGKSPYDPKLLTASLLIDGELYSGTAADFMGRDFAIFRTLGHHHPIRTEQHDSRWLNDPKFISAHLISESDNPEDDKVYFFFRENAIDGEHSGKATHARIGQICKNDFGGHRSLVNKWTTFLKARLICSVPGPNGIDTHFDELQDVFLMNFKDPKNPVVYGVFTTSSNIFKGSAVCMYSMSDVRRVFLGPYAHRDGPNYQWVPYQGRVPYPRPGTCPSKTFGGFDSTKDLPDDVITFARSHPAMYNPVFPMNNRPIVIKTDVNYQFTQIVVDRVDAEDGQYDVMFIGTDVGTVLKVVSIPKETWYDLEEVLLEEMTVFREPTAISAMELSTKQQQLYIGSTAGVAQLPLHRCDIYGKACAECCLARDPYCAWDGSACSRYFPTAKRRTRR


Target: T1, Sema3A(65)
Assay: ELISA on coated antigen (5 µg/ml), Fab in 2 fold dilutions from 1 µM, detection with HRP goat anti human H+L
Description: FIGS. 1A-B are graphs illustrating purification and ELISA binding evaluation of anti Sema3a isolated Fabs for estimated Kd values. The analyzed antibody was added in 2 fold dilution series starting at 1 μM to the antigen (Sema3A) coated wells (5 μg/ml). Bound antibodies were detected with horseradish peroxidase (HRP)-conjugated goat anti human H+L secondary antibodies. Fab 3H4 (FIG. 1A), L4B8 and L4E6 (FIG. 1B) are presented.

| Binder | EC50 (read off the curve) [nM] |
| --- | --- |
| Fab L4B8 (Fab, V domains shown, C-terminal His tag on the Fd fragment) VH: EVQLLESGGGLVQPGGSLRLPCAASGFTVGLYNINWVRQAPGKGLAWVSTISGSGLNTYYSDPVKGRFTISRDNSKNTLYLQMNSLRAEDTAVYYCARDEDTYAFNWGQGTLVTVSS VL: DIVLTQSPGTLSLSPGERATLSCRASQSVSSSYLAWYQQKPGQAPRLLIYGASTRAPGIPDRFSGSGSGTDFTLTISRLEPEDFAVYYCHQRGSGDTFGPGTKVEIK | ~100 |
| Fab L4E6 (Fab, V domains shown, C-terminal His tag on the Fd fragment) VH: EVQLLESGGGLVQPGGSLRLSCAASGFTFSNFVMNWVRQAPGKGLEWVSRINTDGTSTNYADSVTGRFTISRDNSKNTLYLQMNSLRAEDTAVYYCARDYPLRRLMYYYYGMDVWGQGTLVTVSS VL: DIVLTQSPGTLSLSPGERATLSCRASQTISSNLAWYQQKPGQAPRLLIYGASSRATGIPDRFSGSGSGTDFTLTISRLEPEDFAVYYCQQYSWSPRVYSFGQGTKLEIK | ~200 |
